Article PMC2246632

B1: native CDEIII probe (dsDNA)
DNA 1: AAATATTAGTGTATTTGATTTCCGAAAGTTAAA
DNA 2: TTTAACTTTCGGAAATCAAATACACTAATATTT
B2: native CDEIII competitor (dsDNA)
DNA 1: AAATATTAGTGTATTTGATTTCCGAAAGTTAAA
DNA 2: TTTAACTTTCGGAAATCAAATACACTAATATTT
B3: site 1 mutant (dsDNA)
DNA 1: AAATATTAGTGTATTTGATTTGATAAAGTTAAA
DNA 2: TTTAACTTTATCAAATCAAATACACTAATATTT
B4: site 2 mutant (dsDNA)
DNA 1: AAATATTAGAACTTTTGATTTCCGAAAGTTAAA
DNA 2: TTTAACTTTCGGAAATCAAAAGTTCTAATATTT

Legend:
[1] = target: Cep3Δ (lacks zinc cluster) (Saccharomyces cerevisiae, UniProt P40969 48-608); assay: EMSA
[2] = target: T1, Cep3 (Cep3 1-608, full-length) (Saccharomyces cerevisiae, UniProt P40969 1-608); assay: EMSA
[3] = target: T1, Cep3 (Cep3 1-608, full-length); assay: competition

T1 sequence (P40969 whole entry): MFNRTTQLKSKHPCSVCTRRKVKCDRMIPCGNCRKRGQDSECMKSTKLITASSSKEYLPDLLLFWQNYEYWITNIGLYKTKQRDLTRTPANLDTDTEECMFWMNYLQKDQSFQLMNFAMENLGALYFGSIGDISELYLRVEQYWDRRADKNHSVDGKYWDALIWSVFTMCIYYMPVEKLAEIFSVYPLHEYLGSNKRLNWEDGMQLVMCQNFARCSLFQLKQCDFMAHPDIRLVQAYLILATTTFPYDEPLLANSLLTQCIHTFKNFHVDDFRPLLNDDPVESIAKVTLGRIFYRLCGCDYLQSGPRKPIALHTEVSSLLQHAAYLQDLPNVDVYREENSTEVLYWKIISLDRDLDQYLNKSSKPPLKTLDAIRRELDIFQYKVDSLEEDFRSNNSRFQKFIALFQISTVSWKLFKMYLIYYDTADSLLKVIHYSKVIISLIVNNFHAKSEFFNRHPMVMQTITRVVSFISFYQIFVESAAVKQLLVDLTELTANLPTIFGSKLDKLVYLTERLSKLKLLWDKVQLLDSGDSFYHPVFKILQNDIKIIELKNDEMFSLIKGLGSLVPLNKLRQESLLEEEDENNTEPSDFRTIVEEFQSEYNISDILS
Chain of Cep3Δ (lacks zinc cluster) (P40969 48-608, stated change not applied): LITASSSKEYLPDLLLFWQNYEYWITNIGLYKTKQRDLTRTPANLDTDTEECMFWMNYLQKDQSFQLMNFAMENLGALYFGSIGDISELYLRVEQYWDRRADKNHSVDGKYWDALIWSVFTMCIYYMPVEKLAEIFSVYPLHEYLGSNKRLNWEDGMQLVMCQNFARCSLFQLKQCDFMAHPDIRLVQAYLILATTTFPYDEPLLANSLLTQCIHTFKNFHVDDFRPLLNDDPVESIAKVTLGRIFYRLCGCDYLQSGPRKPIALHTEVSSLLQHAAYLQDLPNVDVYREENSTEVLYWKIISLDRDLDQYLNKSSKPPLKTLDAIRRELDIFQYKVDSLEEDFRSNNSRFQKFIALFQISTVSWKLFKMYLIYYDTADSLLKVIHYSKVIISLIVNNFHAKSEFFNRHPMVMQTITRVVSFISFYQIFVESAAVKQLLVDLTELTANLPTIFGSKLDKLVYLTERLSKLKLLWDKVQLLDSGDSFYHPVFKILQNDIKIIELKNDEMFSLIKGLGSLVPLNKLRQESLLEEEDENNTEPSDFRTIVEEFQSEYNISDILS

| Binder | binding result [1] | binding result [2] | binding result [3] |
| --- | --- | --- | --- |
| B1 | no binding | binds |  |
| B2 |  |  | binds |
| B3 |  |  | no binding |
| B4 |  |  | binds |
